In publication PMC3386213 (Molecular Biology of the Cell, 2012):

Molecular target: the molecule itself
Test: cross-linking

B1: HA-tagged KCTD6 N-terminal BTB domain (domain or fragment)
chain: MDNGDWGYMMTDPVTLNVGGHLYTTSLTTLTRYPDSMLGAMFGGDFPTARDPQGNYFIDRDGPLFRYVLNFLRTSELTLPLDFKEFDLLRKEADFYQIEPLIQCLNDPKPLYPMDTFEEVVELSSTRKLSKYSNPVAVIITQLTITT
  stoichiometry N: 2
